This passage reports EC50 and response results from PMC9114490.

In this assay the target is Purified human C1q, P02745;P02746;P02747. Briefly: FACS-based C1q binding assay. The conditions noted are these: for response: read off a plot.

Consider 4A8 Parental E345R; E430G, for which the concentration giving a half-maximal response (EC50) (usually the concentration that produces a half-maximal response) was determined as 26.1 nM. For the same substance, under “parent: est. 65000”, the response was 750000 MFI.
Substance EY6A Parental E345R; E430G had a 50% effective concentration (EC50) of 42.1 nM. In addition, the response (parent: est. 75000) was found to be 830000 MFI.
The substance REGN10933 Parental E345R; E430G registered an EC50 of 4 nM. The response (parent: est. 42000) was 800000 MFI.
Substance REGN10987 Parental E345R; E430G gave an EC50 of 10.5 nM. In addition, for the setting “parent: est. 85000”, the response stood at 830000 MFI.
For S230 parental IgG1 E345R; E430G, the response (parent: est. 30000) amounted to 50000 MFI.
Regarding S309 parental IgG1 E345R; E430G, the EC50 stood at 10 nM. The response (parent: est. 42000) is 800000 MFI.
